Experimental data published in patent publication US20090169546A1 (published 2009).
No end group written: not given here.

T1: HMGB1 B-box peptide 91-108 (human, also: biotinylated, site not given here)
T1 peptide: DPNAPKRPPSAFFLFCSE

T2: recombinant HMG1 produced in E. coli as calmodulin binding protein (CBP) fusion (human)
T2 chain: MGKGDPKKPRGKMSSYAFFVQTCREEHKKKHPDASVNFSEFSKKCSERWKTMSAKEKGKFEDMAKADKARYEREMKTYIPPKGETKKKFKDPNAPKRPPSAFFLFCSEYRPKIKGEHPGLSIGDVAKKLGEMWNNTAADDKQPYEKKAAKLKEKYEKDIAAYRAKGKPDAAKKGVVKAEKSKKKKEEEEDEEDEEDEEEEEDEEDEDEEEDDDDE

B1: anti-HMG1 antibody S16 (antibody, V domains shown)
VH: EVQLLESGGGLVQPGGSLRLSCAASGFTFSWYSMLWVRQAPGKGLEWVSYISPSGGFTNYADSVKGRFTISRDNSKNTLYLQMNSLRAEDTAVYYCARWDYNSGWYYDHWGQGTLVTVSS
VL: DIQMTQSPDTLSLSPGERATLSCRASQSVNSRNLAWYQQKPGQAPRLLIYGASTRATGIPDRFSGSVSGTEFTLTISSLQPDDFATYYCQQYNSYFTFGQGTKLEIK
notes: also called ATCC PTA-6259
B2: anti-HMG1 antibody S6 (antibody, V domains shown)
VH: EVQLLESGGGLVQPGGSLRLSCAASGFTFSWYDMSWVRQAPGKGLEWVSRISPSGGYTMYADSVKGRFTISRDNSKNTLYLQMNSLRAEDTAVYYCARLEVGATSGGTAFDIWGQGTMVTVSS
VL: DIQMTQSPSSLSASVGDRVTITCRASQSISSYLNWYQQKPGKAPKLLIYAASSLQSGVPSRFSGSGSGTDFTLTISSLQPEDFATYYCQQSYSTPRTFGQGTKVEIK
notes: also called ATCC PTA-6143
B3: anti-HMG1 antibody G16 (antibody, V domains shown)
VH: EVQLLESGGGLVQPGGSLRLSCAASGFTFSWYKMTWVRQAPGKGLEWVSSISPSGGFTSYADSVKGRFTISRDNSKNTLYLQMNSLRAEDTAVYYCARDLDIRHAFDIWGQGTMVTVSS
VL: DIQMTQSPGTLSLSPGESGTLSCRASESVSSRHFAWYQQKPGQAPRLLIYGASSRPTGIPDRFSGSGSGTDFTLTLSRLEPEDFAVYFCQYYGSSPYTFGGGTKVEMK
B4: anti-HMG1 antibody S14 (antibody, V domains shown)
VH: EVQLLESGGGLVQPGGSLRLSCAASGFTFSWYETGWVRQAPGKGLEWVSGISPSGGYTQYADSVKGRFTISRDNSKNTLYLQMNSLRAEDTAVYYCARSGVGATKIFDYWGQGTLVTVSS
VL: DIQMTQSPSSLSASVGDRVTIICRANERINTYLNWYQQKPGKAPKLLISGTSSLESGVPSRFSGSGSGTEFTLSISSLQPEDFASYYCQQSYSSPYTFGQGTNLEIR
B5: anti-HMG1 antibody G12 (antibody, V domains shown)
VH: EVQLLESGGGLVQPGGSLRLSCAASGFTFSYYMMTWVRQAPGKGLEWVSSISPSGGYTIYADSAKGRFTISRDNSKNTLYLQMNSLRAEDTAVYYCARALSTGSFWDYWGQGTLVTVSS
VL: DIQMTQSPGTLSLSPGERATLSCRASESLTSTYVAWYQHKPGQAPRLLIHGGSTRATGIPVRFSGSGSGTDFTLTIATLEPEDFAVYYCQQYGSSPYTFGQGTKLEIK
B6: anti-HMG1 antibody G9 (antibody, V domains shown)
VH: EVQLLESGGGLVQPGGSLRLSCAASGFTFSSYDMFWVRQAPGKGLEWVSRISPSGGYTYYADSVKGRFTISRDNSKNTLYLQMNSLRAEDTAVYYCARLRYFDSRGYAFDIWGQGTMVTVSS
VL: DIQMTQSPGTLSLSPGERATLSCRASQSVRSSYLAWYQQKPGQAPRLLIYGASTRATGIPDRFSGSGSGTDFTLTISRLEPEDFAVYYCQQYGTSRWTFGQGTKVEIK
B7: anti-HMG1 antibody G34 (antibody, V domains shown)
VH: EVQLLESGGGLVQPGGSLRLSCAASGFTFSHYMMGWVRQAPGKGLEWVSRISPSGGGTVYADSVKGRFTISRDNSKNTLYLQMNSLRAEDTAVYYCARGGNWNYISYYYYYLDVWGKGTTVTVSS
VL: DIQMTQSPSSLSASVGDRVAITCRASQSIDTYLNWYQQKPGKAPKLLIYAASKLEDGVPSRFSGSGTGTDFTLTIRSLQPEDFASYFCQQSYSSPGITFGPGTKVEIK
B8: anti-HMG1 antibody G35 (antibody, V domains shown)
VH: EVQLLESGGGLVQPGGSLRLSCAASGFTFSWYKMVWVRQAPGKGLEWVSSIVPSGGITIYADSVKGRFTISRDNSKNTLYLQMNSLRAEDTAVYYCARVQQWLGRPYFDYWGQGTLVTVSS
VL: DIQMTQSPLSLPVTPGEPASISCRSSQSLLHGNGYNYLDWYLQRPGQSPQLLIYSGSNRASGVPDRFSGSGSGTDFTLKISRVEAEDVGVYYCMQSLQSRTFGQGTKVEIK
B9: anti-HMG1 antibody S17 (antibody, V domains shown)
VH: EVQLLESGGGLVQPGGSLRLSCAASGFTFSYYDMHWVRQAPGKGLEWVSRISPSGGYTWYADSVKGRFTISRDNSKNTLYLQMNSLRAEDTAVYYCTRGRYTSGWHEYFDPWGQGTLVTVSS
VL: DIQMTQSPSSLSASVGDRVTITCRASQSIGTYLNWYQQKPGTAPKVLIYAASSLQSGVPSRFSGSGSGTDFTLTISSLQPEDFSTYYCQQSYNTPRTFGQGTKLEIK
B10: anti-HMG1 antibody G20 (antibody, V domains shown)
VH: EVQLLESGGGLVQPGGSLRLSCAASGFTFSWYDMFWVRQAPGKGLEWVSWISPSGGYTKYADSVKGRFTISRDNSKNTLYLQMNSLRAEDTAMYYCARSGLDYYDSSGYLDAFDIWGQGTMVTVSS
VL: DIQMTQSPSSVSASVGDRVTITCRASQDVSIWLAWYQQKPGKAPKLLIFGASRLQSGVPSRFSGSRSGADFTLTIDSVQPEDFASYYCQQADSFPLTFGGGTKVEIK
B11: anti-HMG1 antibody S12 (antibody, V domains shown)
VH: EVQLLESGGGLVQPGGSLRLSCAASGFTFSKYIMHWVRQAPGKGLEWVSGIVPSGGLTEYADSVKGRFTISRDNSKNTLYLQMNSLRAEDTATYYCAKEIFGQFDYWGQGTLVTVSS
VL: AQSALTQPPSVSAAPRQRVTISCSGSTSNIGNNAVTWYQYFPGKAPKLLIYSDNQRPSGVPDRFSGSKSGTSASLAITGLQAEDEADYYCQSYDRGLSVVFGGGTKLTVL
B12: anti-HMG1 antibody E11 (antibody, V domains shown)
VH: EVQLLESGGGLVQPGGSLRLSCAASGFTFSRYQMNWVRQAPGKGLEWVSSISPSGGHTHYADSVKGRFTISRDNSKNTLYLQMNSLRAEDTAVYYCAKDGRQGKISTVDHWGQGTLVTVSS
VL: DIQMTQSPGTLSLSPGERATLSCRASQSVRSNFLAWYQQKPGQAPRLLIYGASRRASGIPDRFSGSGFGADFTLSISRLEPEDFAVYYCQQYGSSPNTFGQGSRVEIK
B13: anti-HMG1 antibody G2 (antibody, V domains shown)
VH: EVQLLESGGGLVQPGGSLRLSCAASGFTFSWYKMQWVRQAPGKGLEWVSGISPSGGSTAYADSVKGRFTISRDNSKNTLYLQMNSLRAEDTAVYYCAKMGLFNTGNSYVDYWGQGTLVTVSS
VL: AQSELTQPPSVSEAPGQRVTISCSGSTSNIGNNAVIWYQQLPGKAPKLLIYYDDLLPSGVSDRFSGSKSGTSGSLAISGLQSEDEADYYCASWDDNLNGPLFGGGTKLTVL

Molecular target: T1, HMGB1 B-box peptide 91-108
Test: ELISA on biotinylated peptides captured on avidin
Procedure: The plate was then blocked with 4% milk powder dissolved in PBS at 37° C. for 1 hour. The blocking solution was removed and replaced with human anti-HMG1 antibodies at various concentrations (see FIGS. 5A-B). […] HRP activity was detected with Sureblue HRP substrate (KPL). Plates were read at 450 nm using a Kinetic Microplate Reader (Molecular Devices). […] After washing and blocking with 1% BSA in PBS, the biotinylated peptides were individually added into the avidin coated wells and incubated for 30 min at room temperature. The serial diluted antibody G4, S16 and S6 at the initial concentration at 10 μg/ml were then transferred into the wells followed by adding mouse anti human IgG-HRP conjugate (Pierce). Detection was accomplished by adding 50 μl of tetramethylbenzidine (TMB) substrate (KPL) and the absorbance was read at 450 nm.

B1: binds.

Molecular target: T2, recombinant HMG1 produced in E. coli as …
Test: BIAcore 3000; mAb amine-coupled to CM5, HMG1 injected in two-fold dilutions; steady-state model
Procedure: HMG1 Binding Affinity via BIAcore Analysis: All experiments were performed on a BIAcore 3000 instrument (BIAcore, Inc., Piscataway, N.J.). Briefly, each mAb was immobilized to a CM5 sensor chip using a standard amine coupling chemistry. Separately a reference (control) flow cell was also prepared. Two-fold, serial dilutions of HMG1 in instrument buffer were sequentially injected at a slow flow rate over the individual mAb and reference flow-cell surfaces. Following the binding and dissociation of HMG1, the mAbs surfaces were regenerated with a brief pulse of 1M NaCl-50 mM NaOH. At the end of each experiment, the binding curves were evaluated using a steady-state model available through the BIAevaluation software supplied by BIAcore, Inc. (Piscataway, N.J.).

Compared with B2, B3 is 1.8-fold lower in Kd: 39 nM for the first, 22 nM for the second. The second binds more tightly here.

Compared with B4, B1 is 8.9-fold lower in Kd: 205 nM for the first, 23 nM for the second.

First: B5
Second: B6
The Kd of the first is 1.7-fold lower: 73 nM for the first, 125 nM for the second. The first binds more tightly here.

Compared with B7, B8 is 3.6-fold higher in Kd: 67 nM for the first, 242 nM for the second. The first binds more tightly here.

Molecular target: T2, recombinant HMG1 produced in E. coli as …
Test: ELISA; HMGB1 preincubated with antibody, then added to immobilised RAGE-Fc
Procedure: HMG1 binding to RAGE-Ig by ELISA: 50 μl/well of RAGE-Fc fusion protein at 5 μg/ml in PBS was added to each well of an ELISA plate and incubated overnight at 4° C. The plate was then blocked with 200 μl of 5% milk at 37° C. for 1 hr and washed 3× with PBS/Tween. 50 μl/well of diluted HMGB1 solution. For dose curves, HMGB1 concentrations started at 4 ug/ml in PBS. For antibody blocking the HMGB1 was preincubated in another plate with human anti-HMG1 antibodies or buffer, then transferred to the RAGE-coated plate. The plates were then incubated at room temperature for 2 hours and washed 3×. To detect any HMG1 bound to the immobilized RAGE-Fc a mixture of biotinylated mouse anti-HMG1 mAbs (10D4, 4H11, 3E10 and 5C12) each at 1 ug/ml, total Ab: 4 ug/ml, were added to each well and the plate was incubated for 1 hour at room temperature. The plate was then washed and Strepavidin-HPR was added to each well and incubated 15 min. The plate was then washed 3× and blotted dry. 100 μl of TMB developing agent was added and the plate read at 650 nm. Values were calculated as percent of inhibition with HMG1 alone equal to 0% inhibition. The data in FIG. 9 and summarized in Table 1 represent the average of two separate experiments.

B2 and B1 cannot be ordered by “percent inhibition of HMG1 binding to RAGE” value: ≥ 35% for the first, ≥ 35% for the second.

Molecular target: T2, recombinant HMG1 produced in E. coli as …
Test: cell-based or functional assay

First: B2
Second: B9
The “IC50, inhibition of HMG1 stimulated NO release from macrophages” value of the first is 10-fold lower: 4.15 µg/mL for the first, 41.7 µg/mL for the second.

B3 and B10 are within 1.5-fold of each other in “IC50, inhibition of HMG1 stimulated NO release from macrophages” value: 22 µg/mL for the first, 20.4 µg/mL for the second.

In the case of B12, the “IC50, inhibition of HMG1 stimulated NO release from macrophages” value is reported as 101 µg/mL.

Going from B2 to B9, the “IC50, inhibition of rHMG1 stimulated IL-1β release from human PBMCs” value rises from 0.0232 µg/mL to 0.0809 µg/mL (3.5-fold).

Compared with B4, B1 is 89-fold higher in “IC50, inhibition of rHMG1 stimulated IL-1β release from human PBMCs” value: 0.0678 µg/mL for the first, 6.05 µg/mL for the second.

Going from B5 to B10, the “IC50, inhibition of rHMG1 stimulated IL-1β release from human PBMCs” value falls from 5.91 µg/mL to 0.4 µg/mL (15-fold).

Compared with B6, B13 is 24-fold higher in “IC50, inhibition of rHMG1 stimulated IL-1β release from human PBMCs” value: 0.211 µg/mL for the first, 5.03 µg/mL for the second.

B2 and B9 are within 1.5-fold of each other in “IC50, inhibition of rHMG1 stimulated IL-6 release from human PBMCs” value: 0.174 nM for the first, 0.162 nM for the second.

Going from B3 to B4, the “IC50, inhibition of rHMG1 stimulated IL-6 release from human PBMCs” value falls from 1.06 nM to 0.191 nM (5.5-fold).

Going from B1 to B5, the “IC50, inhibition of rHMG1 stimulated IL-6 release from human PBMCs” value rises from 0.56 nM to 1.12 nM (2-fold).

First: B10
Second: B11
The “IC50, inhibition of rHMG1 stimulated IL-6 release from human PBMCs” value of the first is 2.6-fold lower: 0.652 nM for the first, 1.67 nM for the second.

Compared with B6, B7 is 3.5-fold higher in “IC50, inhibition of rHMG1 stimulated IL-6 release from human PBMCs” value: 0.246 nM for the first, 0.858 nM for the second.

First: B8
Second: B12
The “IC50, inhibition of rHMG1 stimulated IL-6 release from human PBMCs” value of the first is 2.2-fold lower: 0.564 nM for the first, 1.22 nM for the second.

B13 was tested, and the “IC50, inhibition of rHMG1 stimulated IL-6 release from human PBMCs” value was 0.994 nM.

Compared with B2, B4 is 3.6-fold higher in “IC50, inhibition of rHMG1 stimulated TNF-α release from human PBMCs” value: 0.0182 µg/mL for the first, 0.0662 µg/mL for the second.

First: B1
Second: B5
The “IC50, inhibition of rHMG1 stimulated TNF-α release from human PBMCs” value of the first is 1.8-fold higher: 1.44 µg/mL for the first, 0.796 µg/mL for the second.

Compared with B10, B6 is 2.4-fold lower in “IC50, inhibition of rHMG1 stimulated TNF-α release from human PBMCs” value: 0.598 µg/mL for the first, 0.248 µg/mL for the second.

With B13 the “IC50, inhibition of rHMG1 stimulated TNF-α release from human PBMCs” value was 1.35 µg/mL.

First: B1
Second: B5
The “IC50, inhibition of rHMG1 stimulated IL-12 release from human PBMCs” value of the first is 2.2-fold lower: 1.24 µg/mL for the first, 2.79 µg/mL for the second.

For B13, the “IC50, inhibition of rHMG1 stimulated IL-12 release from human PBMCs” value was 1.26 µg/mL.
